Normalized IR-B EC50 data for 1 substance are collected here from patent publication US20170281788A1.

The target of this experiment is insulin receptor (IR-B) (UniProt P06213). The experiment can be described thus: cell-based or functional assay.

With “CIU-033 (from UniProt P09681 52-93) (ligand; B1 amine-CH2CH2CH2-S-S-Cys of incretin; X=Aib)”, the Normalized IR-B EC50 is 988 pM.
